Data from US20150140022A1 (FRAUNHOFER GESELLSCHAFT ZUR FOERDERUNG DER ANGEWANDTEN …, published 2015).

T1: CD30 (human, UniProt P28908 19-595)
T1 construct: whole, on cells; Endogenous antigen on L540 cells
T1 sequence (looked up): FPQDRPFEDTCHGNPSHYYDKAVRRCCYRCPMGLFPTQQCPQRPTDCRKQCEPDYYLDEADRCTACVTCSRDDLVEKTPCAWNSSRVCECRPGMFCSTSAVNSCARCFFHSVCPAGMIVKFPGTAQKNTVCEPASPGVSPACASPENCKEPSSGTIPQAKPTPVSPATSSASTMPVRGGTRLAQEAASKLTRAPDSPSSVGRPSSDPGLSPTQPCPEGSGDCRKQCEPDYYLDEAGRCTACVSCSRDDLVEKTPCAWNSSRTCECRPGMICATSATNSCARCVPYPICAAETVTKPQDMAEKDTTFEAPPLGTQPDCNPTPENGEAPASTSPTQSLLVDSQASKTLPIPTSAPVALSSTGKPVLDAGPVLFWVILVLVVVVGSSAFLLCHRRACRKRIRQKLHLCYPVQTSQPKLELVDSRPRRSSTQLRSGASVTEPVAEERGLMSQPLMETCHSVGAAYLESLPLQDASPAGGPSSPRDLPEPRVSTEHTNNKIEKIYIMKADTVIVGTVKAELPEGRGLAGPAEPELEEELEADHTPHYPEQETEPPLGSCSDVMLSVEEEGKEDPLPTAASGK


Assays:
[1] = target: T1, CD30; assay: flow cytometry on L540 cells (lacking EGFR but expressing CD30), anti-His Alexa 488 detection
[2] = target: T1, CD30; assay: flow cytometry on L540 cells (CD30+, EGFR-), direct fluorescence
Description: Flow cytometry analysis was carried out after incubating 4×10⁵ cells with each fusion protein for 20 min at […] in PBS. […] As a control, scFv-Ki4-SNAP was labeled with BG-VistaGreen (black curve) and its binding activity was tested against A431, L540 and CHO-K1 cells (filled gray curves). […] As a control, scFv-Ki4-SNAP labeled with BG-Ce6 (black curve) was tested against A431, L540 and CHO-K1 cells (filled gray curves).
The binding efficiency of the labeled and unlabeled fusion proteins was determined by flow cytometry using a FACSCalibur (Becton & Dickinson, Heidelberg, Germany) and CellQuest software. […] Approximately 4×10⁵ cells were incubated in 200 μL PBS containing 0.5 μg of labeled protein for 20 min on ice. The cells were then washed twice with 1.8 mL PBS in a conventional cell washer and analyzed by flow cytometry.

binding result [1]	Binder	binding result [2]
no binding (tested: 0.5 µg/ml)	scFv-425-SNAP (scFv, Secreted from HEK-293T cells by an Ig kappa leader and purified by its His6 tag; not shown: SNAP-tag (hAGTm, modified human O6-alkylguanine-DNA alkyltransferase, 20 kDa)) scFv: MAQVQLQQSGAELVKPGASVKLSCKASGYTFTSHWMHWVKQRAGQGLEWIGEFNPSNGRTNYNEKFKSKATLTVDKSSSTAYMQLSSLTSEDSAVYYCASRDYDYDGRYFDYWGQGTTVTVSSGGGGSGGGGSGGGGSDIELTQSPAIMSASPGEKVTMTCSASSSVTYMYWYQQKPGSSPRLLIYDTSNLASGVPVRFSGSGSGTSYSLTISRMEAEDAATYYCQQWSSHIFTFGSGTELEIKRHHHHHH	
	scFv-425-SNAP-VistaGreen (scFv, BG-Vista Green dye covalently coupled to the active site of the SNAP-tag, not shown: SNAP-tag (hAGTm)) scFv: MAQVQLQQSGAELVKPGASVKLSCKASGYTFTSHWMHWVKQRAGQGLEWIGEFNPSNGRTNYNEKFKSKATLTVDKSSSTAYMQLSSLTSEDSAVYYCASRDYDYDGRYFDYWGQGTTVTVSSGGGGSGGGGSGGGGSDIELTQSPAIMSASPGEKVTMTCSASSSVTYMYWYQQKPGSSPRLLIYDTSNLASGVPVRFSGSGSGTSYSLTISRMEAEDAATYYCQQWSSHIFTFGSGTELEIKRHHHHHH	no binding (tested: 0.5 µg of labeled protein in 200 µL)
	scFv-425-SNAP-Ce6 (scFv, chlorin e6 through a benzyl-PEG24 linker (BG-PEG24-Ce6) covalently coupled to the active site of the SNAP-tag, not shown: SNAP-tag (hAGTm)) scFv: MAQVQLQQSGAELVKPGASVKLSCKASGYTFTSHWMHWVKQRAGQGLEWIGEFNPSNGRTNYNEKFKSKATLTVDKSSSTAYMQLSSLTSEDSAVYYCASRDYDYDGRYFDYWGQGTTVTVSSGGGGSGGGGSGGGGSDIELTQSPAIMSASPGEKVTMTCSASSSVTYMYWYQQKPGSSPRLLIYDTSNLASGVPVRFSGSGSGTSYSLTISRMEAEDAATYYCQQWSSHIFTFGSGTELEIKRHHHHHH	no binding (tested: 0.5 µg of labeled protein in 200 µL)
